Data on two molecules can be found in publication PMC4995097, “Talin-KANK1 interaction controls the recruitment of cortical microtubule stabilizing complexes to focal adhesions” (eLife, 2016).

One assay addresses T1, talin1 R7-R8 S1641E (mouse, UniProt P26039 1357-1653, S1641E).
T1 construct: talin1, mouse, R7-R8 (limits as the wild type: 1357-1653) with S1641E; also called S1641E mutant; source: gene synthesized by GeneArt
Nature of the assay: fluorescence polarisation; fixed 0.5 μM BODIPY-labelled KANK peptide, increasing talin R7-R8, PBS, 100 μl, room temperature, triplicate; one site total and non-specific binding model. The settings on record: both partners purified.

In assay [1] the target is T2, talin1 R7-R8 (murine talin1 residues 1357–1653) (mouse, UniProt P26039 1357-1653).
T2 construct: talin1, mouse, residues 1357-1653 (R7-R8); 15N-labelled for NMR, unlabelled for fluorescence polarisation; Vector pet151-TOPO; also called talin R7-R8; wild type R7-R8
T2 sequence (P26039 1357-1653): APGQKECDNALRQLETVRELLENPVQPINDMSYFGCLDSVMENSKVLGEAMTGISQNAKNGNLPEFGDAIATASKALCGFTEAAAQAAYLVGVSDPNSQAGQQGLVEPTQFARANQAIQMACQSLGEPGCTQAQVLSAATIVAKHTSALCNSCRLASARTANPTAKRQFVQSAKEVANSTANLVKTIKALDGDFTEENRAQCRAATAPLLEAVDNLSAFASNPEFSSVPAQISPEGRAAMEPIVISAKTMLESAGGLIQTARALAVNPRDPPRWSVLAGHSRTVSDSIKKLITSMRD
The description is as above. The conditions noted are these: both partners purified.

T1 sequence (P26039 1357-1653 S1641E): as the sequence (P26039 1357-1653) above, with S285E counted along it

B1: BODIPY-labeled KANK1(30–60)C peptide (peptide)
peptide: PYFVETPYGFQLDLDFVKYVDDIQKGNTIKKC
modifications: BODIPY TMR dye coupled via the carboxy terminal cysteine
notes: KANK1, human, residues 30-60; added C-terminal cysteine; also called KANK1(30–60) peptide; source: synthetic peptide (Biomatik), dye-coupled, gel filtered
On to B1, for which the binding result (with talin1 R7-R8 S1641E; in assay [1]) was “binds” in each case.

B2: BODIPY-labeled KANK2(31–61)C peptide (peptide)
peptide: PYSVETPYGYRLDLDFLKYVDDIEKGHTLRRC
modifications: BODIPY TMR dye coupled via the carboxy terminal cysteine
notes: KANK2, residues 31-61; added C-terminal cysteine; source: synthetic peptide (Biomatik), dye-coupled, gel filtered
On to B2, for which the binding result in assay [1] is given as “binds”.
